The source of these data is paper PMC12737678.

One assay has as its target oxytocin (UniProt P01178). The assay is described as follows: small-molecule microarray.
The target in assay [1] is SARS-CoV-2 papain-like protease (PLpro) (SARS-CoV-2).

oxytocin, sequence (P01178 whole entry, looked up): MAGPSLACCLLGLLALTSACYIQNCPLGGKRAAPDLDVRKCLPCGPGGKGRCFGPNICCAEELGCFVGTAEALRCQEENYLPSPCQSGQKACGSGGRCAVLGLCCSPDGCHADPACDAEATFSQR

For the substance “SARS-CoV-2 main protease (Mpro) (enzyme)”, in the assay with oxytocin, the SNR (signal-to-noise ratio on the microarray) worked out at 5.53. Turning to “SARS-CoV-2 papain-like protease (PLpro) (enzyme)”, the SNR (signal-to-noise ratio on the microarray) with oxytocin came out at 6.52. In assay [1], “oxytocin (from UniProt P01178 20-28) (peptide)” showed an IC50 of inhibition of PLpro enzymatic activity (dose-response curve, Figure 5C) of 4.92 µM.
